The values that follow come from article PMC4609913.

The target in experiment [1] is recombinant ADAM12 (A Disintegrin and Metalloproteinase 12), activated by furin (UniProt O43184). The experiment is described as follows: enzyme inhibition assay (fluorogenic FRET-peptide protease activity); 6-point dilution of PA12 incubated with 5 nM recombinant ADAM12 for 10 min before the substrate; 15 uM Dabcyl-LAQAhomopheRSK(FAM)-NH2, 25 mM Tris pH 8, 10^-3% Brij-35, 10 mM CaCl2, 15 uM furin inhibitor 1, RT; Ki inferred from dose-response curves.

Experiment [2] has the same target.

Sequence of recombinant ADAM12 (A Disintegrin and Metalloproteinase 12), activated by furin (O43184 whole entry): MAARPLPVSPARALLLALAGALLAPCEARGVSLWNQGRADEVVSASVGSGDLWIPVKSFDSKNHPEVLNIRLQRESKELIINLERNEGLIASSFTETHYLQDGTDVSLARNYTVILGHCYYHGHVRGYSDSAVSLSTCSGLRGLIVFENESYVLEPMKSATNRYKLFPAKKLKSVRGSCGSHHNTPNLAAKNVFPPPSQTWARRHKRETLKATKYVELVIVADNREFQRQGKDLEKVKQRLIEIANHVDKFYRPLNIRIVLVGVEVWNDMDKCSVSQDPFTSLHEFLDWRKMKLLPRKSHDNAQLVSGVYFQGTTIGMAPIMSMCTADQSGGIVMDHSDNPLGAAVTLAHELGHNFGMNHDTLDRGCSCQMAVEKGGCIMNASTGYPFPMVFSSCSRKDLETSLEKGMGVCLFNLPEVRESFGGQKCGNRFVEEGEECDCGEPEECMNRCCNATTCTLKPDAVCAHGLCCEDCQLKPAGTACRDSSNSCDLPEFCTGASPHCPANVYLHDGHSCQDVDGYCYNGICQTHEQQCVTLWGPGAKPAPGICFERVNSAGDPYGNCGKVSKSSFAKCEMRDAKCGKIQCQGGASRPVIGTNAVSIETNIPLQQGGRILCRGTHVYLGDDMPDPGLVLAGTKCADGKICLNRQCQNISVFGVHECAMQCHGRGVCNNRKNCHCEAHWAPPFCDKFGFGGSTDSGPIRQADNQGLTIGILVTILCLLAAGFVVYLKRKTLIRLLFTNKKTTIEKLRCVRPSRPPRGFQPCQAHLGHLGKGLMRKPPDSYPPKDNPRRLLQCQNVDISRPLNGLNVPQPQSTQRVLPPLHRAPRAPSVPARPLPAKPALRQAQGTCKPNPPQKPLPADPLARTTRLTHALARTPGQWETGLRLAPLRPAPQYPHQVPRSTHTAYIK

B1: recombinant His-tagged human ADAM12 prodomain (amino acids 29-206) (domain or fragment)
chain: RGVSLWNQGRADEVVSASVGSGDLWIPVKSFDSKNHPEVLNIRLQRESKELIINLERNEGLIASSFTETHYLQDGTDVSLARNYTVILGHCYYHGHVRGYSDSAVSLSTCSGLRGLIVFENESYVLEPMKSATNRYKLFPAKKLKSVRGSCGSHHNTPNLAAKNVFPPPSQTWARRHK
B1: in experiment [1], the Ki was 430 nM. The relative level of intact transmembrane HB-EGF on 12Z-HE cells (live-cell Myc immunostaining, flow cytometry) after 2 uM PA12 for 3 h in experiment [2] is 20%.
